# Assay results from patent US20090035321A1, “Intercellular adhesion molecules and their binding ligands” (Boehringer Ingelheim Pharmaceuticals, Inc., published 2009).
# B1: human rhinovirus 14 (HRV14) (other)
# chain: GAQVSTQKSGSHENQNILTNGSNQTFTVINYYKDAASTSSAGQSLSMDPSKFTEPVKDLMLKGAPALNSPNVEACGYSDRVQQITLGNSTITTQEAANAVVCYAEWPEYLPDVDASDVNKTSKPDTSVCRFYTLDSKTWTTGSKGWCWKLPDALKDMGVFGQNMFFHSLGRSGYTVHVQCNATKFHSGCLLVVVIPEHQLASHEGGNVSVKYTFTHPGERGIDLSSANEVGGPVKDVIYNMNGTLLGNLLIFPHQFINLRTNNTATIVIPYINSVPIDSMTRHNNVSLMVIPIAPLTVPTGATPSLPITVTIAPMCTEFSGIRSKSIVPQGLPTTTLPGSGQFLTTDDRQSPSALPNYEPTPRIHIPGKVHNLLEIIQVDTLIPMNNTHTKDEVNSYLIPLNANRQNEQVFGTNLFIGDGVFKTTLLGEIVQYYTHWSGSLRFSLMYTGPALSSAKLILAYTPPGARGPQDRREAMLGTHVVWDIGLQSTIVMTIPWTSGVQFRYTDPDTYTSAGFLSCWYQTSLILPPETTGQVYLLSFISACPDFKLRLMKDTQTISQTVALTEGLGDELEEVIVEKTKQTVASISSGPKHTQKVPILTANETGATMPVLPSDSIETRTTYMHFNGSETDVECFLGRAACVHVTEIQNKDATGIDNHREAKLFNDWKINLSSLVQLRKKLELFTYVRFDSEYTILATASQPDSANYSSNLVVQAMYVPPGAPNPKEWDDYTWQSASNPSVFFKVGDTSRFSVPYVGLASAYNCFYDGYSHDDAETQYGITVLNHMGSMAFRIVNEHDEHKTLVKIRVYHRAKHVEAWIPRAPRALPYTSIGRTNYPKNTEPVIKKRKGDIKSY
# modifications: [35S]-Met labeled
# Assays:
# Assay in all cases: 35S-HRV14 on COS cells
# [1] = biological target: ICAM-1 Y52/F (human, UniProt P05362)
# Description: (§1) COS cells were seeded into 10 cm tissue culture plates such that they would be 50% confluent by 16-24 hrs. COS cells were then washed once with TBS and incubated for 4 hrs with 4 ml RPMI containing 10% Nu sera (Collaborative) 5 pg/ml chloroquine, 3 μg of mutant plasmid and 200 μg/ml DEAE-dextran sulfate. Cells were then washed with 10% DMSO/PBS followed by PBS and cultured 16 hrs in culture media. Culture media was replaced with fresh media and at 48 hrs post transfection (OS cells were suspended by trypsin/EDTA (Gibco) treatment and divided into 2, 10 cm plates as well as 24 well tissue culture plates for HRV binding. At 72 hrs cells were harvested from 10 cm plates with 5 mM EDTA/HBSS and processed for adhesion to LFA-1 coated plastic and immunofluorescence.
# (§2) Binding occurred in 1 hr at 35° C. in a 5% CO₂ atmosphere with horizontal rotation (100 rpm). Unbound [³⁵S] HRV14 was aspirated, COS cells were gently washed with 150 ml of HRV buffer and then solubilized with 1% SDS in PBS for scintillation counting.
# (§3) In Table 25, the notation for the mutations uses the one-letter code for the wild-type sequence followed by a slash and the one-letter code for the corresponding mutant sequence. The position of the first amino acid within the sequence is indicated. Wild type residues precede the slash followed by the residues they were substituted for in the mutant. COS cells expressing ICAM-1 mutants were tested for adherence to LFA-1 coated plastic and for binding 35S met-labeled HRV14. […] Binding is presented as mean and standard error (SE) for multiple experiments (n). […] The specific linear fluorescence intensity (SLFI) of CL203 for each mutant is normalized to that of wild type CL203 SLFI (% WT) as discussed above. The SLFI of RR1/1, R6.5 and LB-2 SLFI is normalized to the CL203 SLFI of the mutant (% CL203) as described above.
# [2] = biological target: ICAM-1 L91/A (human, UniProt P05362)
# Description: as §1, §2, §3
# [3] = biological target: ICAM-1 N240DS/KNA (human, UniProt P05362)
# Description: as §1, §2, §3
# [4] = biological target: ICAM-1 Q1/K (human, UniProt P05362)
# Description: as §1, §2, §3
# [5] = biological target: ICAM-1 G46NN/ASI (human, UniProt P05362)
# Description: as §1, §2, §3
# [6] = biological target: ICAM-1 A189T/SI (human, UniProt P05362)
# Description: as §1, §2, §3
# [7] = biological target: ICAM-1 Q62PM/API (human, UniProt P05362)
# Description: as §1, §2, §3
# [8] = biological target: ICAM-1 G15/SA (human, UniProt P05362)
# Description: as §1, §2, §3
# [9] = biological target: ICAM-1 M64/I (human, UniProt P05362)
# Description: as §1, §2, §3
# [10] = biological target: ICAM-1 Q73/H (human, UniProt P05362)
# Description: as §1, §2, §3
# [11] = biological target: ICAM-1 S61/I (human, UniProt P05362)
# Description: as §1, §2, §3
# [12] = biological target: ICAM-1 S3/T (human, UniProt P05362)
# Description: as §1, §2, §3
# [13] = biological target: ICAM-1 Q1T/KA (human, UniProt P05362)
# Description: as §1, §2, §3
# [14] = biological target: ICAM-1 R166PQ/EPA (human, UniProt P05362)
# Description: as §1, §2, §3
# [15] = biological target: ICAM-1 E127/R (human, UniProt P05362)
# Description: as §1, §2, §3
# [16] = biological target: ICAM-1 N156/E (human, UniProt P05362)
# Description: as §1, §2, §3
# [17] = biological target: ICAM-1 E59/K (human, UniProt P05362)
# Description: as §1, §2, §3
# [18] = biological target: ICAM-1 R13/Q (human, UniProt P05362)
# Description: as §1, §2, §3
# [19] = biological target: ICAM-1 H152HGA/EEGS (human, UniProt P05362)
# Description: as §1, §2, §3
# [20] = biological target: ICAM-1 R125/E (human, UniProt P05362)
# Description: as §1, §2, §3
# [21] = biological target: ICAM-1 Y66/T (human, UniProt P05362)
# Description: as §1, §2, §3
# [22] = biological target: ICAM-1 G101K/AN (human, UniProt P05362)
# Description: as §1, §2, §3
# [23] = biological target: ICAM-1 D71GQS/NGEL (human, UniProt P05362)
# Description: as §1, §2, §3
# [24] = biological target: ICAM-1 N68/K (human, UniProt P05362)
# Description: as §1, §2, §3
# [25] = biological target: ICAM-1 T75/A (human, UniProt P05362)
# Description: as §1, §2, §3
# [26] = biological target: ICAM-1 S177/G (human, UniProt P05362)
# Description: as §1, §2, §3
# [27] = biological target: ICAM-1 R49KV/EKL (human, UniProt P05362)
# Description: as §1, §2, §3
# [28] = biological target: ICAM-1 E90/Q (human, UniProt P05362)
# Description: as §1, §2, §3
# [29] = biological target: ICAM-1 K77T/ES (human, UniProt P05362)
# Description: as §1, §2, §3
binder,measurement,setting,value
B1,HRV Binding %,[1],174 % of wild type
same,HRV Binding %,[2],105 % of wild type
same,HRV Binding %,[3],82 % of wild type
same,HRV Binding %,[4],78 % of wild type
same,HRV Binding %,[5],9 % of wild type
same,HRV Binding %,[6],168 % of wild type
same,HRV Binding %,[7],182 % of wild type
same,HRV Binding %,[8],164 % of wild type
same,HRV Binding %,[9],107 % of wild type
same,HRV Binding %,[10],117 % of wild type
same,HRV Binding %,[11],111 % of wild type
same,HRV Binding %,[12],196 % of wild type
same,HRV Binding %,[13],11 % of wild type
same,HRV Binding %,[14],25 % of wild type
same,HRV Binding %,[15],131 % of wild type
same,HRV Binding %,[16],107 % of wild type
same,HRV Binding %,[17],105 % of wild type
same,HRV Binding %,[18],60 % of wild type
same,HRV Binding %,[19],82 % of wild type
same,HRV Binding %,[20],157 % of wild type
same,HRV Binding %,[21],204 % of wild type
same,HRV Binding %,[22],140 % of wild type
same,HRV Binding %,[23],21 % of wild type
same,HRV Binding %,[24],137 % of wild type
same,HRV Binding %,[25],119 % of wild type
same,HRV Binding %,[26],66 % of wild type
same,HRV Binding %,[27],49 % of wild type
same,HRV Binding %,[28],157 % of wild type
same,HRV Binding %,[29],42 % of wild type
